Blank lines part the entries; values can stand above or below the binder they belong to.
What was measured:
[1] = molecular target: tubulin (alpha/beta heterodimer), polymerised into microtubules or as free tubulin-dimers (porcine) (UniProt P02550)
[2] = molecular target: tubulin (alpha/beta heterodimer), polymerised into microtubules or as free tubulin-dimers (porcine) (UniProt P02550); assay: co-sedimentation; KIF19A protein (printed 'Two micromoles') with 0-40 μM taxol-stabilized MTs in PEM buffer, 25°C, 15 min, AMP-PNP; 38,000 xg 10 min; SDS-PAGE band intensities; one site binding model
[3] = molecular target: tubulin (alpha/beta heterodimer), polymerised into microtubules or as free tubulin-dimers (porcine) (UniProt P02550); remark: listed apart in the source
[4] = molecular target: tubulin (alpha/beta heterodimer), polymerised into microtubules or as free tubulin-dimers (porcine) (UniProt P02550); remark: listed apart in the source
[5] = molecular target: tubulin (alpha/beta heterodimer), polymerised into microtubules or as free tubulin-dimers (porcine) (UniProt P02550); remark: listed apart in the source
[6] = molecular target: tubulin (alpha/beta heterodimer), polymerised into microtubules or as free tubulin-dimers (porcine) (UniProt P02550); remark: listed apart in the source

MT-stimulated steady-state ATPase, maximum rate [1]: 1.43 s⁻¹ | steady-state ATPase stimulated by free tubulin-dimers, maximum rate [1]: 0.8 s⁻¹ | Kd [2]: 600 nM
B1: KIF19A-353 (mouse KIF19A motor domain, monomeric construct) (domain or fragment)
chain: MKDSGDSKDQQLMVALRVRPISVAELEEGATLIAHKMDEQMVVLMDPMEDPDDILRAHRSREKSYLFDVAFDFTATQEMVYQATTKSLIEGVISGYNATVFAYGPTGCGKTYTMLGTDHEPGIYVRTLNDLFRAIEETSNDMEYEVSMSYLEIYNEMIRDLLNPALGYLELREDSKGVIQVAGITEVSTINAKEIMQLLMKGNRQRTQEPTAANQTSSRSHAVLQVAVRQRSRVKNILQEVRQGRLFMIDLAGSERASQTQNRGQRMKEGAHINRSLLALGNCINALSDKGSNKYINYRDSKLTRLLKDSLGGNSRTVMIAHISPASTAFEESRNTLTYAGRAKNIRTRVKQN

tubulin-stimulated ATPase rate, against the wild type (of the wild type) [3]: 0.5
B2: KIF19A-353 N297P (domain or fragment)
chain: MKDSGDSKDQQLMVALRVRPISVAELEEGATLIAHKMDEQMVVLMDPMEDPDDILRAHRSREKSYLFDVAFDFTATQEMVYQATTKSLIEGVISGYNATVFAYGPTGCGKTYTMLGTDHEPGIYVRTLNDLFRAIEETSNDMEYEVSMSYLEIYNEMIRDLLNPALGYLELREDSKGVIQVAGITEVSTINAKEIMQLLMKGNRQRTQEPTAANQTSSRSHAVLQVAVRQRSRVKNILQEVRQGRLFMIDLAGSERASQTQNRGQRMKEGAHINRSLLALGNCINALSDKGSNKYIPYRDSKLTRLLKDSLGGNSRTVMIAHISPASTAFEESRNTLTYAGRAKNIRTRVKQN

EC50 of depolymerization of GMPCPP-stabilized MTs (5 mM ATP) [4]: 678 nM | MT depolymerization speed (TIRF, 125 nM motor) [4]: 2 nm/s | Kd [2]: 3000 nM
B3: KIF19A-353 K2A (K290 and K294 replaced with alanine) (domain or fragment)
chain: MKDSGDSKDQQLMVALRVRPISVAELEEGATLIAHKMDEQMVVLMDPMEDPDDILRAHRSREKSYLFDVAFDFTATQEMVYQATTKSLIEGVISGYNATVFAYGPTGCGKTYTMLGTDHEPGIYVRTLNDLFRAIEETSNDMEYEVSMSYLEIYNEMIRDLLNPALGYLELREDSKGVIQVAGITEVSTINAKEIMQLLMKGNRQRTQEPTAANQTSSRSHAVLQVAVRQRSRVKNILQEVRQGRLFMIDLAGSERASQTQNRGQRMKEGAHINRSLLALGNCINALSDAGSNAYINYRDSKLTRLLKDSLGGNSRTVMIAHISPASTAFEESRNTLTYAGRAKNIRTRVKQN

Kd [2]: 1600 nM
B4: KIF19A-353 L55A (domain or fragment)
chain: MKDSGDSKDQQLMVALRVRPISVAELEEGATLIAHKMDEQMVVLMDPMEDPDDIARAHRSREKSYLFDVAFDFTATQEMVYQATTKSLIEGVISGYNATVFAYGPTGCGKTYTMLGTDHEPGIYVRTLNDLFRAIEETSNDMEYEVSMSYLEIYNEMIRDLLNPALGYLELREDSKGVIQVAGITEVSTINAKEIMQLLMKGNRQRTQEPTAANQTSSRSHAVLQVAVRQRSRVKNILQEVRQGRLFMIDLAGSERASQTQNRGQRMKEGAHINRSLLALGNCINALSDKGSNKYINYRDSKLTRLLKDSLGGNSRTVMIAHISPASTAFEESRNTLTYAGRAKNIRTRVKQN

Kd [2]: 600 nM | Michaelis-Menten constant of the ATPase for MTs and for tubulins, against 353WT (times lower than 353WT) [5]: 4
B5: KIF19A-353 GS2R (G291 and S292 mutated to arginine) (domain or fragment)
chain: MKDSGDSKDQQLMVALRVRPISVAELEEGATLIAHKMDEQMVVLMDPMEDPDDILRAHRSREKSYLFDVAFDFTATQEMVYQATTKSLIEGVISGYNATVFAYGPTGCGKTYTMLGTDHEPGIYVRTLNDLFRAIEETSNDMEYEVSMSYLEIYNEMIRDLLNPALGYLELREDSKGVIQVAGITEVSTINAKEIMQLLMKGNRQRTQEPTAANQTSSRSHAVLQVAVRQRSRVKNILQEVRQGRLFMIDLAGSERASQTQNRGQRMKEGAHINRSLLALGNCINALSDKRRNKYINYRDSKLTRLLKDSLGGNSRTVMIAHISPASTAFEESRNTLTYAGRAKNIRTRVKQN

K (M, MT) of the MT-stimulated ATPase, against 353WT (times that of 353WT) [6]: 30 | Kd [2]: 5800 nM
B6: KIF19A-353 PC2A (R56A-H58A-R59A-R61A) (domain or fragment)
chain: MKDSGDSKDQQLMVALRVRPISVAELEEGATLIAHKMDEQMVVLMDPMEDPDDILAAAASAEKSYLFDVAFDFTATQEMVYQATTKSLIEGVISGYNATVFAYGPTGCGKTYTMLGTDHEPGIYVRTLNDLFRAIEETSNDMEYEVSMSYLEIYNEMIRDLLNPALGYLELREDSKGVIQVAGITEVSTINAKEIMQLLMKGNRQRTQEPTAANQTSSRSHAVLQVAVRQRSRVKNILQEVRQGRLFMIDLAGSERASQTQNRGQRMKEGAHINRSLLALGNCINALSDKGSNKYINYRDSKLTRLLKDSLGGNSRTVMIAHISPASTAFEESRNTLTYAGRAKNIRTRVKQN
